Measurements from the supplement of paper PMC9112550, “Optimization of the antimicrobial peptide Bac7 by deep mutational scanning” (BMC Biology, 2022).

test system: Escherichia coli TOP10; experiment: shrunken log2 fold change of peptide-encoding DNA abundance (4.5 h post-induction vs induction); higher = less antimicrobial activity (less host growth inhibition); details: time post-induction: 4.5 h; library: site-saturation at positions 5, 18, 19, 20
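Further: peptides expressed intracellularly from a pBAD plasmid library in pooled LB shake-flask culture, induced with 0.3% L-arabinose, DNA abundance read by NGS, three biological replicates, DESeq2 with apeglm shrinkage.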

| Sequence | shrunken log2 fold change |
| --- | --- |
| RRIRNRPPRLPRPRPRPGCKPRP | -0.00214 |
| RRIRRRPPRLPRPRPRPKFYPRP | -0.102 |
| RRIRTRPPRLPRPRPRPHAYPRP | -0.635 |
| RRIRERPPRLPRPRPRPVMRPRP | 0.453 |
| RRIRDRPPRLPRPRPRPCLQPRP | -0.0105 |
| RRIRHRPPRLPRPRPRPHPQPRP | -0.185 |
| RRIRNRPPRLPRPRPRPWIGPRP | -0.128 |
| RRIRIRPPRLPRPRPRPPAVPRP | 0.279 |
| RRIRRRPPRLPRPRPRPHDRPRP | 0.103 |
| RRIRSRPPRLPRPRPRPAEAPRP | 0.429 |
| RRIRSRPPRLPRPRPRPWNVPRP | -0.346 |
| RRIRLRPPRLPRPRPRPQFWPRP | 0.099 |
| RRIRNRPPRLPRPRPRPEPCPRP | -0.0302 |
| RRIRYRPPRLPRPRPRPVGQPRP | -0.106 |
| RRIRARPPRLPRPRPRPKQPPRP | 0.516 |
| RRIRVRPPRLPRPRPRPLISPRP | -0.0293 |
| RRIRYRPPRLPRPRPRPPRNPRP | 0.142 |
| RRIRMRPPRLPRPRPRPWNSPRP | -0.00149 |
| RRIRKRPPRLPRPRPRPKAEPRP | 0.669 |
| RRIRDRPPRLPRPRPRPSIVPRP | -0.0831 |
| RRIRPRPPRLPRPRPRPVPGPRP | 0.202 |
| RRIRIRPPRLPRPRPRPLPTPRP | 0.0405 |

| Sequence | shrunken log2 fold change |
| --- | --- |
| RRIRTRPPRLPRPRPRPIRFPRP | -0.0183 |
| RRIRLRPPRLPRPRPRPLFDPRP | -0.148 |
| RRIRDRPPRLPRPRPRPWHHPRP | -0.179 |
| RRIRMRPPRLPRPRPRPMCEPRP | 0.273 |
| RRIRVRPPRLPRPRPRPKPAPRP | 0.431 |
| RRIRERPPRLPRPRPRPCNWPRP | -0.0685 |
| RRIRFRPPRLPRPRPRPGVYPRP | -0.0669 |
| RRIRHRPPRLPRPRPRPQSEPRP | -0.314 |
| RRIRKRPPRLPRPRPRPMNFPRP | 0.18 |
| RRIRNRPPRLPRPRPRPRRIPRP | 0.0821 |
| RRIRARPPRLPRPRPRPADNPRP | 0.383 |
| RRIRMRPPRLPRPRPRPKKPPRP | 0.102 |
| RRIRKRPPRLPRPRPRPLGCPRP | 0.659 |
| RRIRVRPPRLPRPRPRPCLIPRP | -0.641 |
| RRIRKRPPRLPRPRPRPFSLPRP | -0.189 |
| RRIRYRPPRLPRPRPRPHIPPRP | -0.452 |
| RRIRLRPPRLPRPRPRPNTMPRP | -0.501 |
| RRIRERPPRLPRPRPRPRGVPRP | 0.309 |
| RRIRVRPPRLPRPRPRPLSPPRP | -0.172 |
| RRIRIRPPRLPRPRPRPDPLPRP | -0.326 |
| RRIRCRPPRLPRPRPRPWHGPRP | -0.244 |
| RRIRNRPPRLPRPRPRPVKIPRP | 0.0539 |

| Sequence | shrunken log2 fold change |
| --- | --- |
| RRIRMRPPRLPRPRPRPWSWPRP | -0.00716 |
| RRIRNRPPRLPRPRPRPPCEPRP | 0.0665 |
| RRIRGRPPRLPRPRPRPPVSPRP | 0.604 |
| RRIRDRPPRLPRPRPRPRRMPRP | -0.152 |
| RRIRDRPPRLPRPRPRPEILPRP | -0.101 |
| RRIRMRPPRLPRPRPRPLSAPRP | 1.19 |
| RRIRHRPPRLPRPRPRPWDEPRP | -0.175 |
| RRIRCRPPRLPRPRPRPTMKPRP | -0.246 |
| RRIRHRPPRLPRPRPRPDKGPRP | 0.0349 |
| RRIRSRPPRLPRPRPRPANFPRP | 0.0977 |
| RRIRTRPPRLPRPRPRPIVGPRP | -0.0587 |
| RRIRGRPPRLPRPRPRPFCHPRP | 0.418 |
| RRIRTRPPRLPRPRPRPSEWPRP | -0.0236 |
| RRIRARPPRLPRPRPRPRISPRP | 0.0223 |
| RRIRCRPPRLPRPRPRPFSPPRP | -0.181 |
| RRIRIRPPRLPRPRPRPTGWPRP | 0.19 |
| RRIRSRPPRLPRPRPRPPKWPRP | 0.329 |
| RRIRDRPPRLPRPRPRPYCKPRP | 0.0343 |
| RRIRHRPPRLPRPRPRPRTDPRP | 0.0682 |
| RRIRFRPPRLPRPRPRPIYLPRP | -0.626 |
| RRIRIRPPRLPRPRPRPPGVPRP | 0.408 |
| RRIRQRPPRLPRPRPRPGRKPRP | 0.249 |

| Sequence | shrunken log2 fold change |
| --- | --- |
| RRIRIRPPRLPRPRPRPKFWPRP | -0.0477 |
| RRIRMRPPRLPRPRPRPKCVPRP | 0.0964 |
| RRIRGRPPRLPRPRPRPYLFPRP | -0.0066 |
| RRIRWRPPRLPRPRPRPVFQPRP | 0.183 |
| RRIRARPPRLPRPRPRPCLLPRP | 0.0509 |
| RRIRMRPPRLPRPRPRPRYFPRP | 0.0308 |
| RRIRTRPPRLPRPRPRPCGEPRP | -0.23 |
| RRIRWRPPRLPRPRPRPDNCPRP | -0.015 |
| RRIRRRPPRLPRPRPRPEECPRP | 0.00164 |
| RRIRNRPPRLPRPRPRPGFSPRP | 0.0167 |
| RRIRVRPPRLPRPRPRPSSCPRP | -0.184 |
| RRIRIRPPRLPRPRPRPNMTPRP | -0.804 |
| RRIRERPPRLPRPRPRPNAFPRP | -0.568 |
| RRIRSRPPRLPRPRPRPKYRPRP | 0.127 |
| RRIRARPPRLPRPRPRPSHFPRP | -0.0734 |
| RRIRCRPPRLPRPRPRPEWNPRP | 0.202 |
| RRIRHRPPRLPRPRPRPGNVPRP | -0.36 |
| RRIRMRPPRLPRPRPRPKDSPRP | 1.66 |
| RRIRDRPPRLPRPRPRPEFSPRP | 0.221 |
| RRIRSRPPRLPRPRPRPPARPRP | 0.876 |
| RRIRRRPPRLPRPRPRPNTVPRP | -0.107 |
| RRIRKRPPRLPRPRPRPSVPPRP | 0.21 |

| Sequence | shrunken log2 fold change |
| --- | --- |
| RRIRDRPPRLPRPRPRPQQSPRP | 0.0846 |
| RRIRVRPPRLPRPRPRPTKVPRP | -0.341 |
| RRIRHRPPRLPRPRPRPRIGPRP | 0.172 |
| RRIRGRPPRLPRPRPRPNIAPRP | 0.197 |
| RRIRERPPRLPRPRPRPPTAPRP | 0.0872 |
| RRIRQRPPRLPRPRPRPQELPRP | 0.157 |
| RRIRFRPPRLPRPRPRPVIGPRP | -0.234 |
| RRIRLRPPRLPRPRPRPHAVPRP | 0.0578 |
| RRIRARPPRLPRPRPRPGHYPRP | 0.186 |
| RRIRLRPPRLPRPRPRPLIKPRP | -0.273 |
| RRIRHRPPRLPRPRPRPMIMPRP | -0.266 |
| RRIRRRPPRLPRPRPRPQFNPRP | -0.323 |
| RRIRMRPPRLPRPRPRPKWQPRP | -0.0255 |
| RRIRPRPPRLPRPRPRPVAHPRP | 0.0324 |
| RRIRCRPPRLPRPRPRPYYWPRP | -0.992 |
| RRIRVRPPRLPRPRPRPNKLPRP | -0.325 |
| RRIRKRPPRLPRPRPRPQNHPRP | 2.37 |
| RRIRTRPPRLPRPRPRPPEGPRP | 0.308 |
| RRIRFRPPRLPRPRPRPLGEPRP | 0.0158 |
| RRIRKRPPRLPRPRPRPAKPPRP | 0.464 |
| RRIRCRPPRLPRPRPRPLVYPRP | -0.548 |
